Here are results for 4 substances from doi:10.1101/2021.04.23.441157.

Holding throughout (assay): TIRF microscopy of filaments on supported lipid bilayers
Experiment [1] has as its target Cdc11b-Cdc11aCTE-capped septin octamer (Ashbya gossypii | S. cerevisiae) (UniProt P32468).
The target in experiment [2] is Cdc11a-capped septin hetero-octamer (recombinant Ashbya gossypii septin complex) (Ashbya gossypii | S. cerevisiae) (UniProt P32468).
In experiment [3] the target is Cdc11a-Cdc11bCTE-capped septin octamer (Ashbya gossypii | S. cerevisiae) (UniProt P32468).
The target of experiment [4] is Cdc11b-capped septin hetero-octamer (recombinant Ashbya gossypii septin complex) (Ashbya gossypii | S. cerevisiae) (UniProt P32468).

For the substance “Cdc11b-Cdc11aCTE-capped septin octamer (from UniProt P32468 1-407) (complex)”, in experiment [1], the average filament length at steady state stood at 0.55 µm and the average filament length at steady state, in octamers turned out to be 17 octamers.
With “Cdc11a-capped septin hetero-octamer (recombinant Ashbya gossypii septin complex) (from UniProt P32468 1-407)”, in experiment [2], the average filament length at steady state is 0.72 µm and the average filament length at steady state, in octamers was 23 octamers.
Turning to “Cdc11a-Cdc11bCTE-capped septin octamer (from UniProt P32468 1-407) (complex)”, in experiment [3], the average filament length at steady state is 0.94 µm and the average filament length at steady state, in octamers came to 29 octamers.
In the case of “Cdc11b-capped septin hetero-octamer (recombinant Ashbya gossypii septin complex) (from UniProt P32468 1-407)”, in experiment [4], the average filament length at steady state turned out to be 0.52 µm and the average filament length at steady state, in octamers turned out to be 16 octamers.
